Source: paper PMC5034536, “Molecular insights into substrate recognition and catalytic mechanism of the chaperone and FKBP peptidyl-prolyl isomerase SlyD” (BMC Biology, 2016)
Like-named read-outs stand apart in the source and are kept apart here.

Assays:
[1] = biological target: full-length SlyD from Thermus thermophilus (TtSlyDFL) (Thermus thermophilus)
[2] = biological target: chimeric TtSlyD construct in which the IF domain is replaced by the flap loop from human FKBP12 (TtSlyDΔIF) (Thermus thermophilus | human) (UniProt P62942)
[3] = biological target: chimeric TtSlyD construct in which the IF domain is replaced by the flap loop from human FKBP12 (TtSlyDΔIF) (Thermus thermophilus | human) (UniProt P62942); remark: listed apart in the source
[4] = biological target: TtSlyDFL Y63F (Thermus thermophilus)
[5] = biological target: chimeric TtSlyD construct in which the IF domain is replaced by the flap loop from human FKBP12 (TtSlyDΔIF) (Thermus thermophilus | human) (UniProt P62942); remark: listed apart in the source
[6] = biological target: full-length SlyD from Thermus thermophilus (TtSlyDFL) (Thermus thermophilus); remark: listed apart in the source
[7] = biological target: chimeric TtSlyD construct in which the IF domain is replaced by the flap loop from human FKBP12 (TtSlyDΔIF) (Thermus thermophilus | human) (UniProt P62942); remark: listed apart in the source
[8] = biological target: full-length SlyD from Thermus thermophilus (TtSlyDFL) (Thermus thermophilus); remark: listed apart in the source
[9] = biological target: full-length SlyD from Thermus thermophilus (TtSlyDFL) (Thermus thermophilus); remark: listed apart in the source
[10] = biological target: chimeric TtSlyD construct in which the IF domain is replaced by the flap loop from human FKBP12 (TtSlyDΔIF) (Thermus thermophilus | human) (UniProt P62942); remark: listed apart in the source

KD1 (site 1, IF domain) [1]	KD2 (site 2, FKBP domain) [1]	N1 (site 1, IF domain) [1]	N2 (site 2, FKBP domain) [1]	dH1 (site 1, IF domain) [1]	dH2 (site 2, FKBP domain) [1]	Kd [3]	dH [3]	stoichiometry N [3]	KD1 (site 1, IF domain) [9]	KD2 (site 2, FKBP domain) [9]	N1 (site 1, IF domain) [9]	N2 (site 2, FKBP domain) [9]	dH1 (site 1, IF domain) [9]	dH2 (site 2, FKBP domain) [9]	Substance	also measured
0.15 µM	3.16 µM	0.98	1.05	-14.8 kcal/mol	-8.9 kcal/mol	14.4 µM	-10 kcal/mol	0.91	–	–	–	–	–	–	S2 peptide	Kd [2]: 12.2 µM; dH [2]: -5.9 kcal/mol; stoichiometry N [2]: 0.88; KD1 (site 1, IF domain) [4]: 0.03 µM; KD2 (site 2, FKBP domain) [4]: 1.58 µM; N1 (site 1, IF domain) [4]: 0.81; N2 (site 2, FKBP domain) [4]: 0.78; dH1 (site 1, IF domain) [4]: -11.3 kcal/mol; dH2 (site 2, FKBP domain) [4]: -6 kcal/mol
–	–	–	–	–	–	12.1 µM	-11.7 kcal/mol	0.91	0.129 µM	7.04 µM	0.92	1.02	-16.6 kcal/mol	-8.5 kcal/mol	S2-P25A peptide (from UniProt P0A7V0 20-34)	kcat/KM of peptidyl-prolyl cis/trans isomerization of the S2-P25A peptide, NMR lineshape analysis, 25 °C, 0.2 μM enzyme [5]: 2.48e+08 M⁻¹ s⁻¹; kcat/KM of peptidyl-prolyl cis/trans isomerization of the S2-P25A peptide, NMR lineshape analysis, 25 °C, 0.2 μM enzyme, peptide 10–1000 μM [6]: 3.68e+08 M⁻¹ s⁻¹; kcat/KM of peptidyl-prolyl cis/trans isomerization of the S2-P25A peptide, NMR lineshape analysis, 25 °C, 0.2 μM enzyme [7]: 2.84e+08 M⁻¹ s⁻¹; KM of peptidyl-prolyl cis/trans isomerization of the S2-P25A peptide (cis form), Michaelis-Menten fit of NMR lineshape data, 25 °C [8]: 2000 µM
1.45 µM	44 µM	1.13	1.09	-14.1 kcal/mol	-5.9 kcal/mol	–	–	–	–	–	–	–	–	–	S2-P25A/P29E peptide (from UniProt P0A7V0 20-34)	Kd [10]: 29 µM; dH [10]: -6.3 kcal/mol; stoichiometry N [10]: 0.84
0.234 µM	8.33 µM	0.93	1.18	-16.8 kcal/mol	-2.3 kcal/mol	–	–	–	–	–	–	–	–	–	S2-P25N/P29N peptide (from UniProt P0A7V0 20-34)	–
–	–	–	–	–	–	13.8 µM	-10.8 kcal/mol	0.69	0.513 µM	5.68 µM	0.88	1.02	-15.8 kcal/mol	-2.7 kcal/mol	S2-P29E peptide (from UniProt P0A7V0 20-34)	–
–	–	–	–	–	–	17.1 µM	-8.1 kcal/mol	0.77	0.855 µM	18.8 µM	0.76	0.91	-15.8 kcal/mol	-2.3 kcal/mol	S2-W23A peptide (from UniProt P0A7V0 20-34)	–
–	–	–	–	–	–	–	–	–	–	–	–	–	–	–	SlpA linker P5T peptide	Kd [9]: 130 µM; dH [9]: -0.9 kcal/mol; stoichiometry N [9]: 1.76
